{"source": "patent US20250084142A1", "about": "(INTARCIA THERAPEUTICS, published 2025)", "binders": {"B1": {"name": "Compound A50 (peptide)", "peptide": "PKPEAPGKDASPEEWNRYYADLRHYLNWLTRK([γGlu-γGlu-C20 diacid])RF-NH2", "modifications": "N-terminus assumed", "SMILES": "CC(C)C[C@H](NC(=O)[C@H](CC(=O)O)NC(=O)[C@H](C)NC(=O)[C@H](Cc1ccc(O)cc1)NC(=O)[C@H](Cc1ccc(O)cc1)NC(=O)[C@H](CCCNC(=N)N)NC(=O)[C@H](CC(N)=O)NC(=O)[C@H](Cc1c[nH]c2ccccc12)NC(=O)[C@H](CCC(=O)O)NC(=O)[C@H](CCC(=O)O)NC(=O)[C@@H]1CCCN1C(=O)[C@H](CO)NC(=O)[C@H](C)NC(=O)[C@H](CC(=O)O)NC(=O)[C@H](CCCCN)NC(=O)CNC(=O)[C@@H]1CCCN1C(=O)[C@H](C)NC(=O)[C@H](CCC(=O)O)NC(=O)[C@@H]1CCCN1C(=O)[C@H](CCCCN)NC(=O)[C@@H]1CCCN1)C(=O)N[C@@H](CCCNC(=N)N)C(=O)N[C@@H](Cc1c[nH]cn1)C(=O)N[C@@H](Cc1ccc(O)cc1)C(=O)N[C@@H](CC(C)C)C(=O)N[C@@H](CC(N)=O)C(=O)N[C@@H](Cc1c[nH]c2ccccc12)C(=O)N[C@@H](CC(C)C)C(=O)N[C@H](C(=O)N[C@@H](CCCNC(=N)N)C(=O)N[C@@H](CCCCNC(=O)CC[C@H](NC(=O)CC[C@H](NC(=O)CCCCCCCCCCCCCCCCCCC(=O)O)C(=O)O)C(=O)O)C(=O)N[C@@H](CCCNC(=N)N)C(=O)N[C@@H](Cc1ccccc1)C(N)=O)[C@@H](C)O"}, "B2": {"name": "Compound A51 (peptide)", "peptide": "PKPEAPGKDASPEEWNRYYADLRHYLK([γGlu-γGlu-C20 diacid])WLTRQRF-NH2", "modifications": "N-terminus assumed", "SMILES": "CC(C)C[C@H](NC(=O)[C@H](CC(=O)O)NC(=O)[C@H](C)NC(=O)[C@H](Cc1ccc(O)cc1)NC(=O)[C@H](Cc1ccc(O)cc1)NC(=O)[C@H](CCCNC(=N)N)NC(=O)[C@H](CC(N)=O)NC(=O)[C@H](Cc1c[nH]c2ccccc12)NC(=O)[C@H](CCC(=O)O)NC(=O)[C@H](CCC(=O)O)NC(=O)[C@@H]1CCCN1C(=O)[C@H](CO)NC(=O)[C@H](C)NC(=O)[C@H](CC(=O)O)NC(=O)[C@H](CCCCN)NC(=O)CNC(=O)[C@@H]1CCCN1C(=O)[C@H](C)NC(=O)[C@H](CCC(=O)O)NC(=O)[C@@H]1CCCN1C(=O)[C@H](CCCCN)NC(=O)[C@@H]1CCCN1)C(=O)N[C@@H](CCCNC(=N)N)C(=O)N[C@@H](Cc1c[nH]cn1)C(=O)N[C@@H](Cc1ccc(O)cc1)C(=O)N[C@@H](CC(C)C)C(=O)N[C@@H](CCCCNC(=O)CC[C@H](NC(=O)CC[C@H](NC(=O)CCCCCCCCCCCCCCCCCCC(=O)O)C(=O)O)C(=O)O)C(=O)N[C@@H](Cc1c[nH]c2ccccc12)C(=O)N[C@@H](CC(C)C)C(=O)N[C@H](C(=O)N[C@@H](CCCNC(=N)N)C(=O)N[C@@H](CCC(N)=O)C(=O)N[C@@H](CCCNC(=N)N)C(=O)N[C@@H](Cc1ccccc1)C(N)=O)[C@@H](C)O"}, "B3": {"name": "Compound A52 (peptide)", "peptide": "PKPEAPGKDASPEEWNRYYADLRHK([γGlu-γGlu-C20 diacid])LNWLTRQRF-NH2", "modifications": "N-terminus assumed", "SMILES": "CC(C)C[C@H](NC(=O)[C@H](CC(=O)O)NC(=O)[C@H](C)NC(=O)[C@H](Cc1ccc(O)cc1)NC(=O)[C@H](Cc1ccc(O)cc1)NC(=O)[C@H](CCCNC(=N)N)NC(=O)[C@H](CC(N)=O)NC(=O)[C@H](Cc1c[nH]c2ccccc12)NC(=O)[C@H](CCC(=O)O)NC(=O)[C@H](CCC(=O)O)NC(=O)[C@@H]1CCCN1C(=O)[C@H](CO)NC(=O)[C@H](C)NC(=O)[C@H](CC(=O)O)NC(=O)[C@H](CCCCN)NC(=O)CNC(=O)[C@@H]1CCCN1C(=O)[C@H](C)NC(=O)[C@H](CCC(=O)O)NC(=O)[C@@H]1CCCN1C(=O)[C@H](CCCCN)NC(=O)[C@@H]1CCCN1)C(=O)N[C@@H](CCCNC(=N)N)C(=O)N[C@@H](Cc1c[nH]cn1)C(=O)N[C@@H](CCCCNC(=O)CC[C@H](NC(=O)CC[C@H](NC(=O)CCCCCCCCCCCCCCCCCCC(=O)O)C(=O)O)C(=O)O)C(=O)N[C@@H](CC(C)C)C(=O)N[C@@H](CC(N)=O)C(=O)N[C@@H](Cc1c[nH]c2ccccc12)C(=O)N[C@@H](CC(C)C)C(=O)N[C@H](C(=O)N[C@@H](CCCNC(=N)N)C(=O)N[C@@H](CCC(N)=O)C(=O)N[C@@H](CCCNC(=N)N)C(=O)N[C@@H](Cc1ccccc1)C(N)=O)[C@@H](C)O"}, "B4": {"name": "Compound A53 (peptide)", "peptide": "PKPEAPGKDASPEEWNRYYADLK([γGlu-γGlu-C20 diacid])HYLNWLTRQRF-NH2", "modifications": "N-terminus assumed", "SMILES": "CC(C)C[C@H](NC(=O)[C@H](CC(=O)O)NC(=O)[C@H](C)NC(=O)[C@H](Cc1ccc(O)cc1)NC(=O)[C@H](Cc1ccc(O)cc1)NC(=O)[C@H](CCCNC(=N)N)NC(=O)[C@H](CC(N)=O)NC(=O)[C@H](Cc1c[nH]c2ccccc12)NC(=O)[C@H](CCC(=O)O)NC(=O)[C@H](CCC(=O)O)NC(=O)[C@@H]1CCCN1C(=O)[C@H](CO)NC(=O)[C@H](C)NC(=O)[C@H](CC(=O)O)NC(=O)[C@H](CCCCN)NC(=O)CNC(=O)[C@@H]1CCCN1C(=O)[C@H](C)NC(=O)[C@H](CCC(=O)O)NC(=O)[C@@H]1CCCN1C(=O)[C@H](CCCCN)NC(=O)[C@@H]1CCCN1)C(=O)N[C@@H](CCCCNC(=O)CC[C@H](NC(=O)CC[C@H](NC(=O)CCCCCCCCCCCCCCCCCCC(=O)O)C(=O)O)C(=O)O)C(=O)N[C@@H](Cc1c[nH]cn1)C(=O)N[C@@H](Cc1ccc(O)cc1)C(=O)N[C@@H](CC(C)C)C(=O)N[C@@H](CC(N)=O)C(=O)N[C@@H](Cc1c[nH]c2ccccc12)C(=O)N[C@@H](CC(C)C)C(=O)N[C@H](C(=O)N[C@@H](CCCNC(=N)N)C(=O)N[C@@H](CCC(N)=O)C(=O)N[C@@H](CCCNC(=N)N)C(=O)N[C@@H](Cc1ccccc1)C(N)=O)[C@@H](C)O"}, "B5": {"name": "Compound A54 (peptide)", "peptide": "PKPEAPGKDASPEEWNRYYK([γGlu-γGlu-C20 diacid])DLRHYLNWLTRQRF-NH2", "modifications": "N-terminus assumed", "SMILES": "CC(C)C[C@H](NC(=O)[C@H](CC(=O)O)NC(=O)[C@H](CCCCNC(=O)CC[C@H](NC(=O)CC[C@H](NC(=O)CCCCCCCCCCCCCCCCCCC(=O)O)C(=O)O)C(=O)O)NC(=O)[C@H](Cc1ccc(O)cc1)NC(=O)[C@H](Cc1ccc(O)cc1)NC(=O)[C@H](CCCNC(=N)N)NC(=O)[C@H](CC(N)=O)NC(=O)[C@H](Cc1c[nH]c2ccccc12)NC(=O)[C@H](CCC(=O)O)NC(=O)[C@H](CCC(=O)O)NC(=O)[C@@H]1CCCN1C(=O)[C@H](CO)NC(=O)[C@H](C)NC(=O)[C@H](CC(=O)O)NC(=O)[C@H](CCCCN)NC(=O)CNC(=O)[C@@H]1CCCN1C(=O)[C@H](C)NC(=O)[C@H](CCC(=O)O)NC(=O)[C@@H]1CCCN1C(=O)[C@H](CCCCN)NC(=O)[C@@H]1CCCN1)C(=O)N[C@@H](CCCNC(=N)N)C(=O)N[C@@H](Cc1c[nH]cn1)C(=O)N[C@@H](Cc1ccc(O)cc1)C(=O)N[C@@H](CC(C)C)C(=O)N[C@@H](CC(N)=O)C(=O)N[C@@H](Cc1c[nH]c2ccccc12)C(=O)N[C@@H](CC(C)C)C(=O)N[C@H](C(=O)N[C@@H](CCCNC(=N)N)C(=O)N[C@@H](CCC(N)=O)C(=O)N[C@@H](CCCNC(=N)N)C(=O)N[C@@H](Cc1ccccc1)C(N)=O)[C@@H](C)O"}}, "note": "Starred links: 1 amine or outer side, 2 acyl side, 3 side chain; linkers in the order of their positions; H or OH if unused. Groups on a side chain read outwards from the residue. No end group written: not given here. *: point of attachment. C20 diacid = O=C(O)CCCCCCCCCCCCCCCCCCC(=O)*; γGlu = O=C(O)[C@H](CCC(=O)[*:2])N[*:1]", "data": [{"biological_target": "T1, NPY2R", "T1 sequence (P49146 1-381, species assumed, looked up)": "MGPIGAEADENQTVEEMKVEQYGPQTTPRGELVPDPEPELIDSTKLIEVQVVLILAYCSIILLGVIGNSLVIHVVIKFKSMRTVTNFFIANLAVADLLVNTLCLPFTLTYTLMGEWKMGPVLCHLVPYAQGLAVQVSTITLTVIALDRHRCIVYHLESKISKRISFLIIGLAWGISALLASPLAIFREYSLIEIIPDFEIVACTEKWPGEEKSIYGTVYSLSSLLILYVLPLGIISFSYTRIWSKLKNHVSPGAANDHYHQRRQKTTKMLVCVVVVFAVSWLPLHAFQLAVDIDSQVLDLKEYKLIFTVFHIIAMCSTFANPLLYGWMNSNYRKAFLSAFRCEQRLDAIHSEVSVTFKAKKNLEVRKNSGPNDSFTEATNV", "assay": "cell-based or functional assay", "values": [{"binder": "B1", "NPY2R pEC50": "6 -Log(EC50, M)"}, {"binder": "B2", "NPY2R pEC50": "6 -Log(EC50, M)"}, {"binder": "B3", "NPY2R pEC50": "8.4 -Log(EC50, M)"}, {"binder": "B4", "NPY2R pEC50": "8.7 -Log(EC50, M)"}, {"binder": "B5", "NPY2R pEC50": "7.7 -Log(EC50, M)"}]}, {"biological_target": "T2, NPY5R", "T2 sequence (Q15761 1-445, species assumed, looked up)": "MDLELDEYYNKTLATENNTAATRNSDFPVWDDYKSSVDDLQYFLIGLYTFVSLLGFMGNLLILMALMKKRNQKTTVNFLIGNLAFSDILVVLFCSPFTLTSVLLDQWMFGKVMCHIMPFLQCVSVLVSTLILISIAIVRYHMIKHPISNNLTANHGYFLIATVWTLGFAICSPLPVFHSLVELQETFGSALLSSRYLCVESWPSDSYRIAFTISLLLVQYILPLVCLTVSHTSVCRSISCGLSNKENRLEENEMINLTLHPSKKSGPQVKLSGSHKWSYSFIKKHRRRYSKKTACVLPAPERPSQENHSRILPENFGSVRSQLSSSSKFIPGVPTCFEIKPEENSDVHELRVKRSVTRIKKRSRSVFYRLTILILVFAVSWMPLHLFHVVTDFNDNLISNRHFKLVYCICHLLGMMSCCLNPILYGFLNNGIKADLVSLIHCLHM", "assay": "cell-based or functional assay", "values": [{"binder": "B1", "NPY5R pEC50": "6 -Log(EC50, M)"}, {"binder": "B2", "NPY5R pEC50": "6 -Log(EC50, M)"}, {"binder": "B3", "NPY5R pEC50": "8 -Log(EC50, M)"}, {"binder": "B4", "NPY5R pEC50": "7.3 -Log(EC50, M)"}, {"binder": "B5", "NPY5R pEC50": "8 -Log(EC50, M)"}]}]}
